{"source": "patent US20200158726A1", "about": "(NORDIC BIOSCIENCE A S, published 2020)", "binders": {"B1": {"name": "monoclonal antibody NB509-11G8 (antibody, mouse IgG1, kappa, V domains shown)", "VH": "EVQLQQSGAELVKPGASVKLSCTASGFNIKDTHMHWVKQRPEQGLEWIGRIDPANVNTKYDPRFQGRATITADTSSNTAYLQLSRLTSEDTAVYYCATSGSSPWGQGTTLTVSS", "VL": "DVVMTQTPLSLPVSLGDQASISCRSSQSLVHSNGYTYSNWYLQKPGQSPKLLIYRVSNRFSGVPDRFSGSGSGTDFTLKISRVEADDLGVYFCSQSTHVPWTFGGGTKLEIKR", "notes": "Mouse IgG1, kappa, from a hybridoma"}}, "key": {"collagen type X alpha 1": {"molecular_target": "T1, collagen type X alpha 1 (human, UniProt Q03692 19-680)", "T1 construct": "Endogenous protein in U2-OS lysates, seen as bands of about 59 kDa (monomer), 76 kDa and 120 kDa (dimer); also called type X collagen; Col10", "T1 sequence (Q03692 19-680)": "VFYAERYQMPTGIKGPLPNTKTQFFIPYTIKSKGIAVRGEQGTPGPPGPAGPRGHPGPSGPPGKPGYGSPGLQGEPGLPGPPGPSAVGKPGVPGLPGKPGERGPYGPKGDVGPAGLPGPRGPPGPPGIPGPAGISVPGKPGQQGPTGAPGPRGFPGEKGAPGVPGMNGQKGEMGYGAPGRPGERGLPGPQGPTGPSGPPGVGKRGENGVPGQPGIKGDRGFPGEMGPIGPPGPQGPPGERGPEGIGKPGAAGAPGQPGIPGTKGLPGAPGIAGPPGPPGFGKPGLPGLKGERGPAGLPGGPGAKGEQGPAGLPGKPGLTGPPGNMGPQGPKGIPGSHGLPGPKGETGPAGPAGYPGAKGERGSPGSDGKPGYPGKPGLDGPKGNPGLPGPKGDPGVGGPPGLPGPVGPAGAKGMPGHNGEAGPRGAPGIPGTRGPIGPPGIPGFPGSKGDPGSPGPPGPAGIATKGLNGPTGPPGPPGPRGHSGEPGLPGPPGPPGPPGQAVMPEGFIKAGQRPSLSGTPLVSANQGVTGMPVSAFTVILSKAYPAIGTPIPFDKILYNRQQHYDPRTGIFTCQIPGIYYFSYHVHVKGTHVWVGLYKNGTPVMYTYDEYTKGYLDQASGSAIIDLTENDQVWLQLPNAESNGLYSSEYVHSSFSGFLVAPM", "assay": "Western blot of U2-OS cell lysate, antibody at 1 ug/ml", "method": "Human osteosarcoma cell lines (U2-OS; collagen X producing cell line) were purchased from ATCC (USA) and cultivated in DMEM medium containing 10% FBS, 2 mM L-Glutamine, 100 units/ml penicillin and 100 ug/ml streptomycin. Cells were grown in T25 flasks in a 37° C. incubator at 5% CO2, changing the medium every two or three days. When the cells reached 90% confluency the cell lysates were prepared using RIPA lysis buffer with following procedure: the cell media was removed and the cells washed twice with PBS, followed by adding cold RIPA lysis buffer (25 mM Tris-HCl pH7, 6; 150 mM NaCl, 1% Sodium deoxycholate acid). An EDTA free cocktail tablet was added to the flask then RIPA buffer was distributed to cover the whole surface of flask and incubated on ice for 10 minutes. The cells were scraped and centrifuged at 10,000 RPM at 4° C. for 10 minutes and the supernatants stored at −20° C. until use.\nProtein bands were blotted onto a nitrocellulose membrane using the Invitrogen i-Blot gel transfer system according to manufacturer's instruction. The membrane was blocked in blocking buffer (5% skimmed milk in Tris-buffered saline with Tween (TBST)) overnight at 4° C. The monoclonal antibody, NB509-11G8 and commercial collagen type X antibody X53 (for comparison purposes) were applied in a concentration of 1 μg/ml in TBST with 5% skim milk powder and shaken overnight at 4° C. […]"}, "[1]": {"molecular_target": "T2, truncated peptide SFSGFLVA", "T2 construct": "Synthetic peptide; the selection peptide without its two C-terminal residues PM", "T2 peptide": "SFSGFLVA", "assay": "competitive peptide assay against the biotinylated screening peptide"}, "[2]": {"molecular_target": "T3, deselection peptide DMDYLPRVPNQ", "T3 construct": "Synthetic peptide", "T3 peptide": "DMDYLPRVPNQ", "assay": "competitive peptide assay against the biotinylated screening peptide"}, "[3]": {"molecular_target": "T4, selection peptide SFSGFLVAPM-COOH (human)", "T4 construct": "Synthetic peptide; also called calibrator peptide", "T4 peptide": "SFSGFLVAPM-OH", "assay": "competitive peptide assay (preliminary assays); the peptide also blocked the Western blot bands"}}, "note": "No end group written: not given here."}
{"binder": "B1", "values": [{"measurement": "binding result", "setting": "collagen type X alpha 1", "value": "binds"}, {"measurement": "binding result", "setting": "[1]", "value": "no binding"}, {"measurement": "binding result", "setting": "[2]", "value": "no binding"}, {"measurement": "binding result", "setting": "[3]", "value": "binds"}]}
